{"source": "patent US6956104B2", "about": "“Protein Rim2” (JCR Pharmaceuticals Co., Ltd., priority 1999, dated 2005)", "system": "PC12 cells", "assay": "GH secretion from transfected PC12 cells", "assay_type": "cell-based", "details": "for 8-Br-cAMP-induced, Ca2+-dependent GH secretion: 8-Br-cAMP 1 mM, GH released relative to total cellular GH, n=9; for forskolin-induced GH secretion relative to wild-type cAMP-GEFII: high K+, 15-min incubation, increment above basal, wild-type = 100%", "description": "GH secretion from transfected PC12 cells was performed as described in K. Korake et al., J. Biol. Chem., 272:29407(1997). Expression plasmid vectors (pSR α) for wild-type cAMP-GEFII, mutant cAMP-GEFII (T810A), and the double mutant cAMP-GEFII (G114E, G422D) were prepared. As a control, β-galactosidase (β-gal) was used. […] were transfected with GH expression vector (pXGH5: Nichols Institute) plus each vector described above, using LipofectAMINE.\nPC12 cell were incubated with a low […] (4.7 mM) or high K^+ (60 mM) solution, in the presence or absence of forskolin (50 μM) or 8-bromoadenosine 3′,5′ cyclic monophosphate (8-Br-cAMP)(1 mM). Forskolin or 8-Br-cAMP was added 10 min before the incubation with a low or high K^+ solution. In some experiments, the PKA inhibitor H-89 (10 μM) was added 10 min before forskolin stimulation.", "data": [{"molecule": "Nc1ncnc2c1nc(Br)n2[C@@H]1O[C@@H]2COP(=O)(O)O[C@H]2[C@H]1O", "note": "[8-Br-cAMP, 8-bromoadenosine 3′,5′ cyclic monophosphate, reference compound]", "values": [{"measurement": "8-Br-cAMP-induced, Ca2+-dependent GH secretion", "setting": "cAMP-GEFII-transfectant", "result": "34.9±1.3", "unit": "%"}, {"measurement": "8-Br-cAMP-induced, Ca2+-dependent GH secretion", "setting": "control (β-galactosidase-transfectant)", "result": "25.1±1.8", "unit": "%"}]}, {"molecule": "O=S(=O)(NCCNC/C=C/c1ccc(Br)cc1)c1cccc2cnccc12", "note": "[H-89, reference compound]", "values": [{"measurement": "effect on high K+-induced GH secretion", "setting": "H-89 10 μM, cAMP-GEFII-transfected and β-galactosidase-transfected PC12 cells", "result": "reduced"}]}, {"molecule": "cAMP-GEFII: cAMP sensor protein, GDP/GTP exchange factor II; wild type transfected into PC12 cells (protein, left off: large carriers, cAMP sensor protein, GDP/GTP exchange factor II; wild type transfected into PC12 cells) MVAAHAAHSQSSAEWIACLDKRPLERSSEDVDIIFTRLKGVKAFEKFHPNLLRQICLCGYYENLEKGITLFRQGDIGTNWYAVLAGSLDVKVSETSSHQDAVTICTLGIGTAFGESILDNTPRHATIVTRESSELLRIEQEDFKALWEKYRQYMAGLLAPPYGVMETGSNNDRIPDKENTPLIEPHVPLRPAHTITKVPSEKILRAGKILRIAILSRAPHMIRDRKYHLKTYRQCCVGTELVDWMIQQTSCVHSRTQAVGMWQVLLEDGVLNHVDQERHFQDKYLFYRFLDDEREDAPLPTEEEKKECDEELQDTMLLLSQMGPDAHMRMILRKPPGQRTVDDLEIIYDELLHIKALSHLSTTVKRELAGVLIFESHAKGGTVLFNQGEEGTSWYIILKGSVNVVIYGKGVVCTLHEGDDFGKLALVNDAPRAASIVLREDNCHFLRVDKEDFNRILRDVEANTVRLKEHDQDVLVLEKVPAGNRAANQGNSQPQQKYTVMSGTPEKILEHFLETIRLEPSLNEATDSVLNDFVMMHCVFMPNTQLCPALVAHYHAQPSQGTEQERMDYALNNKRRVIRLVLQWAAMYGDLLQEDDVAMAFLEEFYVSVSDDARMMAAFKEQLPELEKIVKQISEDAKAPQKKHKVLLQQFNTGDERAQKRQPIRGSDEVLFKVYCIDHTYTTIRVPVAASVKEVISAVADKLGSGEGLIIVKMNSGGEKVVLKSNDVSVFTTLTINGRLFACPREQFDSLTPLPEQEGPTTGTVGTFELMSSKDLAYQMTTYDWELFNCVHELELIYHTFGRHNFKKTTANLDLFLRRFNEIQFWVVTEVCLCSQLSKRVQLLKKFIKIAAHCKEYKNLNSFFAIVMGLSNVAVSRLALTWEKLPSKFKKFYAEFESLMDPSRNHRAYRLTAAKLEPPLIPFMPLLIKDMTFTHEGNKTFIDNLVNFEKMRMIANTARTVRYYRSQPFNPDAAQANKNHQDVRSYVRQLNVIDNQRTLSQMSHRLEPRRP", "values": [{"measurement": "forskolin-induced, Ca2+-dependent GH secretion with PKA inhibitor H-89, versus control cells", "setting": "H-89 10 μM, forskolin 50 μM", "result": "significantly higher"}, {"measurement": "effect on Ca2+-dependent (60 mM K+) secretion of cotransfected GH", "setting": "compared to the control transfectant", "result": "did not alter"}, {"measurement": "effect on forskolin-induced, Ca2+-dependent GH secretion", "setting": "forskolin 50 μM", "result": "significantly enhanced"}]}, {"molecule": "cAMP-GEFII (T810A): mutant cAMP-GEFII in which a potential PKA phosphorylation site is disrupted (protein, UniProt Q9EQZ6 1-1011, looked up, variant T810A) Rap guanine nucleotide …: MVAAHAAHSQSSAEWIACLDKRPLERSSEDVDIIFTRLKGVKAFEKFHPNLLRQICLCGYYENLEKGITLFRQGDIGTNWYAVLAGSLDVKVSETSSHQDAVTICTLGIGTAFGESILDNTPRHATIVTRESSELLRIEQEDFKALWEKYRQYMAGLLAPPYGVMETGSNNDRIPDKENTPLIEPHVPLRPAHTITKVPSEKILRAGKILRIAILSRAPHMIRDRKYHLKTYRQCCVGTELVDWMIQQTSCVHSRTQAVGMWQVLLEDGVLNHVDQERHFQDKYLFYRFLDDEREDAPLPTEEEKKECDEELQDTMLLLSQMGPDAHMRMILRKPPGQRTVDDLEIIYDELLHIKALSHLSTTVKRELAGVLIFESHAKGGTVLFNQGEEGTSWYIILKGSVNVVIYGKGVVCTLHEGDDFGKLALVNDAPRAASIVLREDNCHFLRVDKEDFNRILRDVEANTVRLKEHDQDVLVLEKVPAGNRAANQGNSQPQQKYTVMSGTPEKILEHFLETIRLEPSLNEATDSVLNDFVMMHCVFMPNTQLCPALVAHYHAQPSQGTEQERMDYALNNKRRVIRLVLQWAAMYGDLLQEDDVAMAFLEEFYVSVSDDARMMAAFKEQLPELEKIVKQISEDAKAPQKKHKVLLQQFNTGDERAQKRQPIRGSDEVLFKVYCIDHTYTTIRVPVAASVKEVISAVADKLGSGEGLIIVKMNSGGEKVVLKSNDVSVFTTLTINGRLFACPREQFDSLTPLPEQEGPTTGTVGTFELMSSKDLAYQMTTYDWELFNCVHELELIYHTFGRHNFKKTAANLDLFLRRFNEIQFWVVTEVCLCSQLSKRVQLLKKFIKIAAHCKEYKNLNSFFAIVMGLSNVAVSRLALTWEKLPSKFKKFYAEFESLMDPSRNHRAYRLTAAKLEPPLIPFMPLLIKDMTFTHEGNKTFIDNLVNFEKMRMIANTARTVRYYRSQPFNPDAAQANKNHQDVRSYVRQLNVIDNQRTLSQMSHRLEPRRP", "values": [{"measurement": "forskolin-induced GH secretion relative to wild-type cAMP-GEFII", "setting": "forskolin 50 μM", "result": "not affected"}]}, {"molecule": "cAMP-GEFII (G114E, G422D): double mutant cAMP-GEFII in which both cAMP binding sites are disrupted (protein, UniProt Q9EQZ6 1-1011, looked up, variant G114E G422D) Rap guanine nucleotide …: MVAAHAAHSQSSAEWIACLDKRPLERSSEDVDIIFTRLKGVKAFEKFHPNLLRQICLCGYYENLEKGITLFRQGDIGTNWYAVLAGSLDVKVSETSSHQDAVTICTLGIGTAFEESILDNTPRHATIVTRESSELLRIEQEDFKALWEKYRQYMAGLLAPPYGVMETGSNNDRIPDKENTPLIEPHVPLRPAHTITKVPSEKILRAGKILRIAILSRAPHMIRDRKYHLKTYRQCCVGTELVDWMIQQTSCVHSRTQAVGMWQVLLEDGVLNHVDQERHFQDKYLFYRFLDDEREDAPLPTEEEKKECDEELQDTMLLLSQMGPDAHMRMILRKPPGQRTVDDLEIIYDELLHIKALSHLSTTVKRELAGVLIFESHAKGGTVLFNQGEEGTSWYIILKGSVNVVIYGKGVVCTLHEGDDFDKLALVNDAPRAASIVLREDNCHFLRVDKEDFNRILRDVEANTVRLKEHDQDVLVLEKVPAGNRAANQGNSQPQQKYTVMSGTPEKILEHFLETIRLEPSLNEATDSVLNDFVMMHCVFMPNTQLCPALVAHYHAQPSQGTEQERMDYALNNKRRVIRLVLQWAAMYGDLLQEDDVAMAFLEEFYVSVSDDARMMAAFKEQLPELEKIVKQISEDAKAPQKKHKVLLQQFNTGDERAQKRQPIRGSDEVLFKVYCIDHTYTTIRVPVAASVKEVISAVADKLGSGEGLIIVKMNSGGEKVVLKSNDVSVFTTLTINGRLFACPREQFDSLTPLPEQEGPTTGTVGTFELMSSKDLAYQMTTYDWELFNCVHELELIYHTFGRHNFKKTTANLDLFLRRFNEIQFWVVTEVCLCSQLSKRVQLLKKFIKIAAHCKEYKNLNSFFAIVMGLSNVAVSRLALTWEKLPSKFKKFYAEFESLMDPSRNHRAYRLTAAKLEPPLIPFMPLLIKDMTFTHEGNKTFIDNLVNFEKMRMIANTARTVRYYRSQPFNPDAAQANKNHQDVRSYVRQLNVIDNQRTLSQMSHRLEPRRP", "values": [{"measurement": "forskolin-induced GH secretion relative to wild-type cAMP-GEFII", "setting": "forskolin 50 μM", "result": "~40", "unit": "%"}]}]}
